The data set in a line: yeast display, Sf9 membrane polyspecificity reagent, FACS + sequencing; frameworks hold sequencing errors. An outline of the steps: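 Polyreactivity labels are assigned by the sorting gate from which each nanobody was recovered. The gates were low and high (top ~1%), set on anti-HA fluorescence for expression and streptavidin fluorescence for reagent binding. Before sorting, galactose-induced (36–48 hours) yeast display cells were stained for 1 hour at 4 °C with 10% biotinylated, detergent-solubilized Sf9 membrane reagent.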
Regarding “QVQLVESGGGLVPAGGSLRLSWAASGFIFGYNVMGWYRQAPGKVRELVAAISRGGSTNYADSVKGRFTISRDNAKKTVSGQMTSLKPEATAVYDCAARRYRPAAFDSWGQGTQVTVSS”, the “polyreactivity (PSR sort gate)” value is on record as “high polyreactivity”.

In the case of “QVQLVESGGGLVPAGGSLRLTCAASGSTFGDYAMGWYRQAPGKERELVAAINFSDGSTYYADSVKGRFTISRDNAKNTVYLQMNSLKPEDTAVYYCAAYTYYDGVYGFDYWGQGTQVTVSS”, the “polyreactivity (PSR sort gate)” value was “low polyreactivity”.

As for “QVQLVESGGGLVQAAGSLRLICAASGSIFTRYTMGWYRQAPGKERELVAVISDSSGRTYYADSVKGRFTISRDNAKNTVYLQMNSLKPEDTAVYYCAAEYSDIYEYWGQGTQVTVSS”, the “polyreactivity (PSR sort gate)” value is given as “low polyreactivity”.

As for “QVQLVESGGGLVQAAGSLRLSCAASGGTFGWYAKGWYRLAHGKEREFLPAIRYSDGNTYYADSVKRRFTISRDNAKNSVYLQMNSLKPEDSAVYYCAADYVYAYIDGEVAEFYYWGPGTQVTVSS”, the “polyreactivity (PSR sort gate)” value is “high polyreactivity”.

Take “QVQLVESGGGLVQAAGSLRLSCAASGITFSRNGMGWYRQAPGKERELFAAISTSGDSTDYADSVKGRFTISRDNAKNTVYLQMNSLKPEDTAVYYCNRDFSLVVHYKFDYWGQGTQVTVSS”: the “polyreactivity (PSR sort gate)” value was “low polyreactivity”. In the case of “QVQLVESGGGLVQAAGSLRLSCAASGSIFGAYAMGWYRQAPGKERELVAAINYGGATTYYADSVKGRFTISRDNAKNTVYLQMNSLKPEDTAVYYCAADYLYAYGDVAVVYGWYAYYYWGQGTQVTVSS”, the “polyreactivity (PSR sort gate)” value is reported as “low polyreactivity”. On to “QVQLVESGGGLVQAAGSLRLSCAASGYIFQYYAMGWYRQAPGKERELVAAITGGGSTKYADSVKGRFTISRDNAKNTVYLQMNSLKPEDTAVYYCAASLWYRISKYDYWGQGTQVTVSS”, for which the “polyreactivity (PSR sort gate)” value is given as “high polyreactivity”.

Consider “QVQLVESGGGLVQAAGSLRLSCAASVGTFTPNVMGWSRKAPGKERELVAAIDDSGSRTYYADSVKGRFTISRVNAKNTVYLQMNSLKPEDTAVYYCAVYWYGTFPMYYWGQGTQVTVSS”, for which the “polyreactivity (PSR sort gate)” value was “low polyreactivity”. Take “QVQLVESGGGLVQAAGSLRLSCAASVITFVKNAMGWYRQAPGKERELVARIRIGGSTSYADSVKGRFTISRDYAKNTFYLQLNSLKPEDTAVYYCARYAGRLSYRYEYWGQGTQVTVSS”: the “polyreactivity (PSR sort gate)” value is “high polyreactivity”.

As to “QVQLVESGGGLVQAAGSLRLSSAPSVSSFRNKAMGWYRQAPGKERELVASISSSGDSTYADSVKGRFTISRDNAKNTVSLQMNSLKPEDTAVYYCARDYLSPYAVDYWGQGTQVTVSS”, the “polyreactivity (PSR sort gate)” value is recorded as “low polyreactivity”.

In the case of “QVQLVESGGGLVQAARSHRVSCAASGSIFWGNVKGWYRQAPGNESELVAAINSGGSTYYADSVKGRFTISRDNAKNTVYLQMNSLIPEDTAVYYCAAAINRYRGTFNYWGQGTQVSVSS”, the “polyreactivity (PSR sort gate)” value is listed as “high polyreactivity”. With “QVQLVESGGGLVQAEGSLRLSCAASGFIFRYNAMGWYRQAPGKERELVAAITSGGSTNYADSVKGRFTISRDNAKNTVYLQMNSLKPEDTAVYYCNKYRPYGRIYHLAYGRDYWGQGTQVTVSS”, the “polyreactivity (PSR sort gate)” value is “high polyreactivity”. With “QVQLVESGGGLVQAGAILRVSCAASGISLQYAMGCYRQAPGKERELVASISSRGTSTYYADSVKGRFTISRDNAKNTVYLQMNSLKPEDTAVYYCAARVRWWSPGGYWGQGTQVTVSS” the entry was “high polyreactivity”. With “QVQLVESGGGLVQAGASLRLRCAASGRTFYYKTMGWYRQAPGKERELVAAITRNGGSTYYADSVKGRFTISRDKAKNTVYLQMKSLKLEDTAVYSCGAEGPSHRLNVRQVKGSDSWGQGTQVSVSS” the entry was “low polyreactivity”; with “QVQLVESGGGLVQAGASLRLSCAASGFTFDSYAMGWYRQAPGKDRELVAVISATGAITYYADSVKGRFTISRDNAKNTVYLPMNSLKPEDTAVYYCAVQVSWSYYRYGYWGQGTQVTVSS”, “low polyreactivity”; with “QVQLVESGGGLVQAGASLRLSCAASGIIFNVKAMGWYRQAPGKERELVAAITSGANTYYADSVKGRFTISRDNAKNTVYLQMNSLKPEDSAVYYCNKVGSNSVGPGYDYWGHGTQVTVSS”, “high polyreactivity”.

As for “QVQLVESGGGLVQAGASLRLSCAASGIILSVYAMGWYRQAPGKERELVAAITTVGNTYYADSVKGRFTISRDNAKNTVYLEMNCLKPEDTAVYYCAAKRWTTYKYNYWGQGTQVTVSS”, the “polyreactivity (PSR sort gate)” value was “high polyreactivity”. As for “QVQLVESGGGLVQAGASLRLSCAASGITLDLYDMGWYRQAPGKERELVAAISRSGVRTYYADSVKWRFTISRDNAKNTVYFQMNSLKPEDTSVYYCNKGYARRYASGYDYWGQGTQVSVSS”, the “polyreactivity (PSR sort gate)” value is listed as “high polyreactivity”. Take “QVQLVESGGGLVQAGASLRLSCAASGRIFSRNTMGWSRQAPGKECEFVAAISQSGGRTYYADSVKGRFTISRDNAKNTVYLQMNSLKPEDTAVYYCNAQFARSSGFNYWGQGTQVTVSS”: the “polyreactivity (PSR sort gate)” value is “high polyreactivity”. With “QVQLVESGGGLVQAGASLRLSCAASGRIFVVNAMGWYRQAPGKERELVATITRSGGITYYADSVKGRFTISRDNAKNTVYLQMNSLKPEDTAVYYCNADVLFYTYYTRGRFDFDYWGQGSQVTVSS”, the “polyreactivity (PSR sort gate)” value is “low polyreactivity”. Regarding “QVQLVESGGGLVQAGASLRLSCAASGRTFEANTMGWYRQAPGKERELVAAITRNGGSTYYADSVKGRFTISRDNAKNTVYLQMNSLKPEDPAVYYCAARSAYRSRHKYDYWGQGTQVTVSS”, the “polyreactivity (PSR sort gate)” value was “high polyreactivity”. As for “QVQLVESGGGLVQAGASLRLSCAASGRTFWFYAMGWYRQAPGQERELVAAISSGGSTNYADSVKGLFTISRDNAKNTVYLQMNSLKPEDTAVYYCAKVGNIPYGTRYYYNRYDYWGQGTQVTVSS”, the “polyreactivity (PSR sort gate)” value is listed as “low polyreactivity”. The result for “QVQLVESGGGLVQAGASLRLSCAASGRTIYANAMGWYIQAPGKERELVAAISRRGGNTYYADSVKGRFTISRDNAKNTVYLQMNRLKPEDTAVYYCYAYGGGDYWGQGTQVTVSS” reads “high polyreactivity”. As for “QVQLVESGGGLVQAGASLRLSCAASGSIFFPYAMGWYRQAPGKERELVASITRAGSTNYADSVKGRFTISRDNAKNTVYLQMTSQKPVDTAVYYCAARNYRQFEYGYWGQGTLVTVSS”, the “polyreactivity (PSR sort gate)” value is on record as “low polyreactivity”. As to “QVQLVESGGGLVQAGASLRLSCAASGSTFLRNAMGWYRQAPGKKGSWVATISYDGDSTYYADSVKGRFTISRDNTKNTVYLQMNSLKPEDPAVYYCAASYSLTFWDKDDYWGQGTQVSVSS”, the “polyreactivity (PSR sort gate)” value is given as “low polyreactivity”.

Regarding “QVQLVESGGGLVQAGASLRLSCAASGSTFYGNTMGWYRQAPGKERELVAAITSTGRTYYADSVKGRFTLSRDNAKNTVYLQMNSLKPEDTAVYYCAASQRRRFQRPSFDYWGQGPQVTVSS”, the “polyreactivity (PSR sort gate)” value was “high polyreactivity”. Consider “QVQLVESGGGLVQAGASLRLSCAASGSTFYVNAMGWYRQAPGKERELVASISSSSGSTYYADSVKRRFTISRDNAKNTVYFQMNSLKPEDTAVYYCAAEVGIFIWFDYWGQGTQVTVSS”, for which the “polyreactivity (PSR sort gate)” value was “low polyreactivity”.

Regarding “QVQLVESGGGLVQAGASLRLSCAASGSTLWYYAMGWYRQAPGKERELVADITSSGNTNYADSVKGRFTISRDNAKNTVYLQMNSLKPEDTAVYYCAADSANYQWYLSWQKDDYWGQGTKVTVSS”, the “polyreactivity (PSR sort gate)” value is “low polyreactivity”. “QVQLVESGGGLVQAGASLRLSCADSGIIFQVYAMGWYRQAPGKERELVAAISDDGSTNYADSVKGRFTISRDNAKNTVYLQMNSLKPEDTAVYYCAKESWGRLYYRYDYWGQGTQVTVSS”: the “polyreactivity (PSR sort gate)” value is “low polyreactivity”.

As for “QVQLVESGGGLVQAGASLRLSCSASGRTFLNYTMGWSRHAPGTERELVAAIRYRDGSTYYADSVKGRFTISRDNAKNTVYLQMNSLKPVDTAVYYCNTRITQVGDYIYDYWGQGTQVTVSS”, the “polyreactivity (PSR sort gate)” value is “low polyreactivity”. Turning to “QVQLVESGGGLVQAGCILRLSCAASGFTFSWYAMGWYRQARGKERELVAAISYSGDSTYYADSVKGRFTISRDNAKNTVYLQMNSLKPEDTAVYYCARRSYYATYYPQPFGYNYLGQGTQVTVSS”, the “polyreactivity (PSR sort gate)” value was “high polyreactivity”.

Take “QVQLVESGGGLVQAGCSGSLSCAASGRIFQRNSMGWYRQAPGKEREFVAAITKSGGGTYADSVKGRFTISRDNAKNTVYLQMNSLKPEDTAVYYCNVVPVWRPYSLINWQKHFGYWGQGTQVTVSS”: the “polyreactivity (PSR sort gate)” value is “high polyreactivity”.

Turning to “QVQLVESGGGLVQAGCSLRISCAASGFTFAHNEMGWSRQAPGKERELVAAISSRGGRTFYADSVKGRFTISRDNAKKTVYLQMNSLKPEDTAVDYCNRVRSVQYDYWGQGSQVTVSS”, the “polyreactivity (PSR sort gate)” value is on record as “high polyreactivity”. Turning to “QVQLVESGGGLVQAGCSLRLICAASGRIFSTYAMGWYRQAPGKERELVAAITSRGGSTYYADSVKGRFTISRDNAKNTVYLQMNSLKPEDTAVYYCATESPYKWGGYRFYYWGQGTQVTVSS”, the “polyreactivity (PSR sort gate)” value is “high polyreactivity”. As for “QVQLVESGGGLVQAGCSLRLSCAASGFIFVGKDMGWYRQAPGKERELVAAISSGGTTNYADSVKGRFTISRDNAKNTVYLQMNSLKPEDTAVYYCAADFDYRQGYDSFHLDYWGQGTQVTVSS”, the “polyreactivity (PSR sort gate)” value is recorded as “low polyreactivity”. In the case of “QVQLVESGGGLVQAGCSLRLSCAASGFIFYDYDMGWYRQAPGKERELVAAITYSGGSTYYADSVKGRFTISRDNAKNTVYFQMNSLKPEDTAVYYCAAVKSRYAEAVDYYYWGQGTQVTVSS”, the “polyreactivity (PSR sort gate)” value is reported as “low polyreactivity”. For “QVQLVESGGGLVQAGCSLRLSCAASGFTFFKYAMGWYRQAPGTERELVAAITRNGGRTYYADSVKGRFTISRDNAKNTVYLQMNSLKPEDTAVYYCAARYANLRNGYRYDYWGQGTQVTVSS”, the “polyreactivity (PSR sort gate)” value is reported as “high polyreactivity”. Consider “QVQLVESGGGLVQAGCSLRLSCAASGGTFGRYAMGWYRQAPGTERELVASITTGGRTNYADSVKGRFTISRDNAKNTVYLQMNSLKPEDTAVYYCAKKRYGYPVPFYYWGQGTQVTVSS”, for which the “polyreactivity (PSR sort gate)” value is on record as “high polyreactivity”. The result for “QVQLVESGGGLVQAGCSLRLSCAASGGTFYVNAMGCYRQAPGKDRELVAGIRESGASTYYADSVKGRFTISLDNAKNTVYLQMNSLKPEDTAVYYCAVDGPYPAASQSEVGYDYWGQGTQVTVSS” reads “low polyreactivity”; that for “QVQLVESGGGLVQAGCSLRLSCAASGRIFSRYTMGWSRQAPGKERELVAAISSGGSTYYADSVKGRFTISLDNAKNTVYFQMNSLKPEDTAVYYCNTRYVGQRSTWVDQVRRYDYCGQGTQVTVSS”, “high polyreactivity”.

Values taken from the nanobody polyreactivity screen of Harvey et al. (2022).
